According to patent US20060269997A1 (Genentech, published 2006):

Assays:
[1] = target: gD-KDR receptor on CHO cells (UniProt P35968 20-1356); test: cell-based or functional assay
[2] = target: KDR on human umbilical vein endothelial cells (HUVEC) (human, UniProt P35968 20-1356); test: cell-based or functional assay
[3] = target: T1, Flt-IgG (a chimeric Flt-human Fc molecule) (UniProt P17948 27-758, limits assumed); test: competition ELISA vs biotinylated native VEGF, Flt-IgG captured by anti-Fc
T1 construct: Only described as a chimeric Flt-human Fc molecule; not shown: human Fc
T1 sequence (P17948 27-758 limits assumed, change not shown): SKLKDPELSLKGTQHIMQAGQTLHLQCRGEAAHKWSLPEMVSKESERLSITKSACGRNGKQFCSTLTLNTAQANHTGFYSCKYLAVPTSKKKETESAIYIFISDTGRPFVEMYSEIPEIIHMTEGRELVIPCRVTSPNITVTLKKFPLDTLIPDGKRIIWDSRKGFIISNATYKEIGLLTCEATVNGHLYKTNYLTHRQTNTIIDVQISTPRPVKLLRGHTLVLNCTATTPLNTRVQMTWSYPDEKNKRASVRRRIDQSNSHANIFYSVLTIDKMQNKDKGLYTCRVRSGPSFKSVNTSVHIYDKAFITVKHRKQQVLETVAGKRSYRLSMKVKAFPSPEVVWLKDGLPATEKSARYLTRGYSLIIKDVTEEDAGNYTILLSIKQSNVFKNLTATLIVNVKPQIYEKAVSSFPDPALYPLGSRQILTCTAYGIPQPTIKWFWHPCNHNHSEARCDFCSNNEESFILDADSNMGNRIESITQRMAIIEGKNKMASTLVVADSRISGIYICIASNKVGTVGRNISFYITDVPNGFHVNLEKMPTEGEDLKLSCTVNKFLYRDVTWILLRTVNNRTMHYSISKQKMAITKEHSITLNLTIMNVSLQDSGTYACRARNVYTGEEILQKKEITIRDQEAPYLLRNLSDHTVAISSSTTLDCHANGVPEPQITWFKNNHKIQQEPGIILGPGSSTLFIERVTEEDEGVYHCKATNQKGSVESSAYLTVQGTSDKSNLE
Description: (§1) Receptor binding assays were performed in 96-well immunoplates (Maxisorp, Nunc-Immunoplate, Nalge Nunc International, Rochester, N.Y.). Each well was coated with 100 μl of a solution containing 2 μg/ml of rabbit F(ab′)2 to human IgG Fc (Jackson ImmunoResearch, West Grove, Pa.) in 50 mM carbonate buffer at pH 9.6 and incubated at 4° C. overnight. The supernatant was then discarded, the wells were washed three times in washing buffer (0.05% Tween 20 in PBS), and the plate was blocked (150 μl per well) with block buffer (0.5% BSA, 0.01% thimerosal in PBS) at room temperature for one hour. The supernatant was discarded, and the wells were washed.
The wells were filled with 100 μl of a solution containing Flt-IgG (a chimeric Flt-human Fc molecule) at 50 ng/ml in assay buffer (0.5% BSA, 0.05% Tween 20 in PBS). The wells were incubated at room temperature for 1 hour and then washed three times in wash buffer (0.05% Tween 20 in PBS).
(§2) Aliquots of the mixture (100 μl) were added to the precoated microtiter wells and the plate was incubated for 2 hours at room temperature. […] The wells were then incubated with 3,3′, 5,5′-tetramethyl benzidine (0.2 g/liter, Kirkegaard & Perry Laboratories, Gaithersburg, Md.) for about 10 minutes at room temperature. Absorbance was read at 450 nm on a Vmax plate reader (Molecular Devices, Menlo Park, Calif.).

[4] = target: FLT-1 receptor (soluble RIA of Examples 6 and 8) (UniProt P17948 27-758, limits assumed); test: radio-immuno receptor-binding assay (RIA)
Chain of FLT-1 receptor (soluble RIA of Examples 6 and 8) (P17948 27-758 limits assumed): as the sequence (P17948 27-758 limits assumed, change not shown) above

[5] = target: KDR receptor (soluble RIA of Examples 6 and 8) (UniProt P35968 20-764, limits assumed); test: radio-immuno receptor-binding assay (RIA)
Chain of KDR receptor (soluble RIA of Examples 6 and 8) (P35968 20-764 limits assumed): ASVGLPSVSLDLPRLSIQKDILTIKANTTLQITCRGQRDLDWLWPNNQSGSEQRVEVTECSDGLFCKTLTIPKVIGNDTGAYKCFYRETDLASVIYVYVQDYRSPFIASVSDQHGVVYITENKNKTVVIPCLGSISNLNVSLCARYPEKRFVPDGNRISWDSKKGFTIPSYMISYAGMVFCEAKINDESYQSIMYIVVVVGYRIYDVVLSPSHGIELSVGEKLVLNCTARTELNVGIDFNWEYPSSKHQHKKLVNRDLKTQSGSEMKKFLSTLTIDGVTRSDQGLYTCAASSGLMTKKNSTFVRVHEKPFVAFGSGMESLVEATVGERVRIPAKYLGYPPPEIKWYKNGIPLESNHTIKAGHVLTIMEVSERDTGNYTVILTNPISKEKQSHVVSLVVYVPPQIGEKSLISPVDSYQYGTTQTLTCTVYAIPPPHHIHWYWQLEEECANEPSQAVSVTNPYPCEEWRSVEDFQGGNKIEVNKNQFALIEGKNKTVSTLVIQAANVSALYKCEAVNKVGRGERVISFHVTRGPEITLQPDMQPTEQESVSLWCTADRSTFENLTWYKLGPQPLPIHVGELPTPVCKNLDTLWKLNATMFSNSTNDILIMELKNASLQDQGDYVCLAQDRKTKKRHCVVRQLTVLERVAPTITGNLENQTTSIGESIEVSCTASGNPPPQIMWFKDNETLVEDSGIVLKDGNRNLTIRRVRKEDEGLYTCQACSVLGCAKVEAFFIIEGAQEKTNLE

KDR (1-3) monomer [6] = target: T2, KDR (1-3) monomer (UniProt P35968 20-327, limits assumed, biotin-labeled in the ELISA of Example 8); test: competition ELISA vs biotinylated VEGF (8-109), soluble KDR (1-3) captured by MAKD5
T2 construct: domain: domains 1 to 3; Genentech reagent; also called domains 1 to 3 of KDR
T2 sequence (P35968 20-327 limits assumed): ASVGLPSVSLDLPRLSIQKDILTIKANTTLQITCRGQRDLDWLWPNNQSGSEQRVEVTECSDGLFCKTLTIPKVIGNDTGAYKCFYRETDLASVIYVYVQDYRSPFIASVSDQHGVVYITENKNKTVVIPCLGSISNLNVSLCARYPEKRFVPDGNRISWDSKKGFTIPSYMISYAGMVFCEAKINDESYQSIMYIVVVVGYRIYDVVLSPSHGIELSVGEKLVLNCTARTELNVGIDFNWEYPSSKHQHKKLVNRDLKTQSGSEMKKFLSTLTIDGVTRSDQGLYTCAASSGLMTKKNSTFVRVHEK
Description: as §1, with “containing 8” for “containing 2”, “of a monoclonal antibody” for “of rabbit F(ab′)2”, “to KDR known as MAKD5 (Genentech, South San Francisco, Calif.)” for “to human IgG Fc (Jackson ImmunoResearch, West Grove, Pa.)”, “was” for “was then”
as §2, with “of this” for “of the”, “for 1 hour” for “for 2 hours”, “(0.2 gram/liter;” for “(0.2 g/liter,”
(§3) Titration curves were fit with a four-parameter nonlinear regression curve-fitting program (KaleidaGraph, Synergy Software, Reading, Pa.).

KDR (1-3) monomer [7] = target: T2, KDR (1-3) monomer; test: competition ELISA: inhibits binding of biotinylated native VEGF (8-109) to KDR (1-3) captured by antibody MAKD5 (Example 2)
Description: as §1, with “containing 8” for “containing 2”, “of a monoclonal antibody” for “of rabbit F(ab′)2”, “to KDR known as MAKD5 (Genentech, South San Francisco, Calif.)” for “to human IgG Fc (Jackson ImmunoResearch, West Grove, Pa.)”, “was” for “was then”
as §2, with “of this” for “of the”, “for 1 hour” for “for 2 hours”, “(0.2 gram/liter;” for “(0.2 g/liter,”
as §3

Chain of KDR on human umbilical vein endothelial cells (HUVEC) (P35968 20-1356): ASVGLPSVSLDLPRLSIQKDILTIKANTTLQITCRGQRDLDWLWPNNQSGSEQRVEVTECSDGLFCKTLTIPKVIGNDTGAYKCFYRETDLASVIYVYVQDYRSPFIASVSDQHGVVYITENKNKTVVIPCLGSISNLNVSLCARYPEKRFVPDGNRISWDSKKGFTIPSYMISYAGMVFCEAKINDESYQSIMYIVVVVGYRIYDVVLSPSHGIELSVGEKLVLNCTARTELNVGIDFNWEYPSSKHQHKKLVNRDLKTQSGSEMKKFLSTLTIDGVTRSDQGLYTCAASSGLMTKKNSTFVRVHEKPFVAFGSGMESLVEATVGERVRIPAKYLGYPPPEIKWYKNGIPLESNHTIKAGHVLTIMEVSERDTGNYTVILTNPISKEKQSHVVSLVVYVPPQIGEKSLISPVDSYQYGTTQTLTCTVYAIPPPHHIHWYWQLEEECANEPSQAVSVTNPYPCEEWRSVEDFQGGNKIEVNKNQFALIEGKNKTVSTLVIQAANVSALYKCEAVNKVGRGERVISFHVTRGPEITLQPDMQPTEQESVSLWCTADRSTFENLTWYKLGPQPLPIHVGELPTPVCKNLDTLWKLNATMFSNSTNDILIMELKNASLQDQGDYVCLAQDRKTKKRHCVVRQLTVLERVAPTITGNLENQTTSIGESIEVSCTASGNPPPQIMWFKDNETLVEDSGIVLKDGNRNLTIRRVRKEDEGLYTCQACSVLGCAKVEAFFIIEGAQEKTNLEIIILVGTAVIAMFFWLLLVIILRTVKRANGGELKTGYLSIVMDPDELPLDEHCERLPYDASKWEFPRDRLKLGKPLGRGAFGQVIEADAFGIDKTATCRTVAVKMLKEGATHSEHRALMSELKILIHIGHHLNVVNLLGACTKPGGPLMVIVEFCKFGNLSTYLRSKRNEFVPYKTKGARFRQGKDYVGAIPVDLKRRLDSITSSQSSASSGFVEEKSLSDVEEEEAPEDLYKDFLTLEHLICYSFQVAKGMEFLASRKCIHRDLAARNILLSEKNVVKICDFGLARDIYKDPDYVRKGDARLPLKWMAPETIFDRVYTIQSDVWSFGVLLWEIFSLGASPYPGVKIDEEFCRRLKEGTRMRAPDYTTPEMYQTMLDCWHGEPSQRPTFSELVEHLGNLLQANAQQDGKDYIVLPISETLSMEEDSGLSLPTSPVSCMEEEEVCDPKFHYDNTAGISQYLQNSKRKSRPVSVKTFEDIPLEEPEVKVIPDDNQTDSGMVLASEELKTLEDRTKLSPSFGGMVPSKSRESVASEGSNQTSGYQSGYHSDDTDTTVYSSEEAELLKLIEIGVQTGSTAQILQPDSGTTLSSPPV

Row | Binder | Phosphorylation-Inducing Activity (KIRA), midpoint concentration [1] | Phosphorylation-Inducing Activity (KIRA), ratio to native VEGF (8-109) [1] | Endothelial Cell Proliferation Activity (HUVEC), ratio to native VEGF (8-109) [2] | Endothelial Cell Proliferation Activity (HUVEC, 3H-thymidine), concentration [2] | IC50 [3] | Relative Binding Affinity (ratio to native VEGF (8-109)) [3] | Relative Binding Affinity (ratio to native VEGF 165) [4] | Relative Binding Affinity (ratio to native VEGF 165) [5] | IC50 (KDR (1-3) monomer [6]) | Relative Binding Affinity (ratio to native VEGF (8-109)) (KDR (1-3) monomer [6]) | IC50 (read off the curve) (KDR (1-3) monomer [7])
1 | LK-VRB-1s* (ligand, human, UniProt P15692-4 27-135, looked up) APMAEGGGQNHHEVVKFEDVLRRSSCHPIETLVDIFQEYPDEIEYIFKPSCVPLMRCGGCCNDEGLECVPTEESNITMQIMRIKPHQGQHIGEMSFLQHNKCECRPKKD | 1 nM | 0.5 fold | 0.2 fold | 0.1 nM | 2700 nM | 6000 fold | 14000 fold | 20 fold | 1 nM | 1 fold | 
2 | native VEGF (8-109) (ligand, human, UniProt P15692 214-315, looked up, biotinylated where used as tracer) GQNHHEVVKFMDVYQRSYCHPIETLVDIFQEYPDEIEYIFKPSCVPLMRCGGCCNDEGLECVPTEESNITMQIMRIKPHQGQHIGEMSFLQHNKCECRPKKD | 2 nM |  |  | 0.5 nM | 0.42 nM |  |  |  |  |  | ~2 nM
